According to the nanobody polyreactivity screen of Harvey et al. (2022):

Assay: yeast display, Sf9 membrane polyspecificity reagent, FACS + sequencing; frameworks hold sequencing errors
How it was run: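 Nanobodies came from a synthetic yeast display library in Saccharomyces cerevisiae BJ5465, induced with galactose for 36–48 hours and stained for 1 hour at 4 °C with 10% biotinylated, detergent-solubilized Sf9 membrane reagent. Cells were enriched on streptavidin microbeads and then FACS-sorted, with low and high (top ~1%) gates set on anti-HA fluorescence for expression and streptavidin fluorescence for reagent binding. Each polyreactivity label reflects the gate a clone came from. Genes were amplified by colony PCR, sequenced by MiSeq 2 × 250 and filtered by CDR length.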

Sequence	polyreactivity (PSR sort gate)
QVQLVESGGGKVQAVGSLRLSCAASGRTFYPYAMGWYRQAPGKERELVAVITWSTGNTYYADSVKGRFTISRDNAKNTVYLQMNSLKPEDTAVYYCAAAYYRYRGTIRYYYWGQGTQVTVSS	high polyreactivity
QVQLVESGGGLAQAGGSLRLSCAASGRTFRTYTMGWYRQAPGKERELVAAISWSGSSTYYADSVKGRFTISRDNAKNTVYLQMNSLKPEDTAVYYCAARGLYDYGYWGQGTQVTVSS	high polyreactivity
QVQLVESGGGLDHAGGRLRLSCAASGSIFYENVMGWYRQAPGKERELVAGISRSGGRTYYADSVKGSFTISRDYAKNTVYLQMNSLQPVDTAVYYCAALTPRNRYRKFDYWGQGTQVTVSS	high polyreactivity
QVQLVESGGGLDLAGGSLRLSCAASGRTFLYYAMGWYRQAPWKDREFVASIRRGGGSTYYADSVKGRFTFSRDNAKHTVYLQMHSLKPVDTAVYYCAAQPYTLSLFRLNYDYWGQGTQVTVSS	low polyreactivity
QVQLVESGGGLDQAAGSLRLTCAASGTTFEYYAMGLYRQAPAKEREFVAAITGSGASTYYADSVKGRFTISRDNAKNTVYLQMNSLKPEDTAVYYCIALSALAVEDGYWGQGTQVTVSS	low polyreactivity
QVQLVESGGGLDQAGGCLRLSCAASGSIFRTYAMGWYRQAPGKERELVADITRRGGSTYYADSVKGRFTISRDNAKYTVNLQLNSLKPEETAVYYCAAYGYTSAGDSARLDYWGQGSQVTVSS	high polyreactivity
QVQLVESGGGLDQAGGRLRLSCAASGRTFNVNVMGWYRQSPGKERELVAAIRYTGGSTYADSVKGRFTISRDNAKNTVYLQMNSLKPEDTAVDYCNADTFFPFDHGMDYWGQGTQVTVSS	low polyreactivity
QVQLVESGGGLDQAGGSHRLSCAASGRIFYIYTMGWYRQPPGKEREFVAGINWNGGSTYYADSVKGRFTISRDNAKNTVYLQMNSLKPEVTAVYYCNADQYWDRYYYWGQGTQVTVSS	low polyreactivity
QVQLVESGGGLDQAGGSLPLSCAASGRTFRYYDRGSYRQAPGKERELVARISISGAGTYYADSVKGRFTISRDNAKNTVYFEMNSLKPEDTAVYYCAADLFWWQKTISGGDYWGQGTQVNVSS	low polyreactivity
QVQLVESGGGLDQAGGSLPLTCAASGSIFDPNAMGWYRQAPGKERELVANNTIGGRTNYADSVKGRFTISRDNPKNTVYLQMNSLKPDDTAVFYCAKDSPYTSVTVLAPIIYESWGKGTQVTVSS	low polyreactivity
QVQLVESGGGLDQAGGSLRISCAASGRTFRNYAMGSYRQAPGKERELVPAISFSGGRTYYADSVKGRFTISRDNAKNTVYLQMNSLKPEDTAVYYCAKVSYYRGDGDEDYGYWGQGTQVPVSS	high polyreactivity
QVQLVESGGGLDQAGGSLRLICAASGITFFPYAMVWYRQAPGKEKELVAAISSGSSTYYADSVKGRFTISRDNAKNTVYLQMNSLKPEDTAVYYCATRRDLHDRYEYDYWGQGTQVTVSS	low polyreactivity
QVQLVESGGGLDQAGGSLRLICAASGLTFYLYAMGWYRQAPGKERELVAAISTRGGSTRYADSVKGRFTISRDNAKNTVYLQMNSLKPEDTAVFDCNAVSKWLEYDYWGQGTQVTVSS	high polyreactivity
QVQLVESGGGLDQAGGSLRLICAASGSTFYIYAMGWYRQAPGKEREFVAAIDFSGSSTYADSVKGRFTISRDNAKNPVYLQMNTLKPEDTAVYYCAAYQIYQYDGPYDYWGQGTQVTVSS	low polyreactivity
QVQLVESGGGLDQAGGSLRLISAASGYVMGWYRQAPEKEKELVATITRGTSTYYADSVKGRFTISRDNAKNTVYFQMNSLKPDDTAVYYCAARTTSGEWPPGNICTYLYDYWGQGTQVTVSS	low polyreactivity
QVQLVESGGGLDQAGGSLRLRCAASGSTFYVNAIGWYRQAPGKERELVAAITSTGTTHNADSVKGRFTISRDNAKKTVYLQMNSLKPEDTAVYYCAAGDQYKTRRNGYGYWGQGTQVTVSS	high polyreactivity

Sequence	polyreactivity (PSR sort gate)
QVQLVESGGGLDQAGGSLRLSCAASARIYGYYANGWYRQAPGKERELVAAINSGGSTYYADSVKGRFTISRDNAKNTVYLQMNSLKPEDTAVYYCAAYKFSVHGYDYWGQGTQGTVSS	high polyreactivity
QVQLVESGGGLDQAGGSLRLSCAASGFIFGRYTMVWYRPAPGKEMELVAAISRGGITNYADSEKGRFTISRDNAKNTVYLQMNSLKPEDTAVYYCATTRDYWRGRSYYYWGQGTQVTVSS	high polyreactivity
QVQLVESGGGLDQAGGSLRLSCAASGFIFLDYAMGWYRRAPGKERELVAAISSRGARTYYADSVKGRFTISRDNAKNTFYLQMNSLKPEDTAVYYCAARGPLDRYGYWGQGTQVTVSS	high polyreactivity
QVQLVESGGGLDQAGGSLRLSCAASGFIFPGNAMGWYRQAPGKERELVAAISWRVGRTYYADSVKGRFTISRDNAKNTVYLQMNSLKPEDTAVYYCAVARSSPEYYYWGQGTQVTVSS	high polyreactivity
QVQLVESGGGLDQAGGSLRLSCAASGFIFRSYTMGWYRQEPRKEREFVPAITWTGGSTYYADSVKGRFTISRDNAKNTVYLQMNSLKPEDTAVYYCNAANWHYSTAPKPYAFDYWGQGTQVTVSS	low polyreactivity
QVQLVESGGGLDQAGGSLRLSCAASGFIYSSYGMGWYRQAPGKERELDAAISRSGGSTYYADSVKGRFTISRDNAKNTVYLEMNSLKPEDTAVYYCATAYSWRNADWFAYSYDYWGQGTQVTVSS	low polyreactivity
QVQLVESGGGLDQAGGSLRLSCAASGFTFGSNAMGWYRQAPGKERELVASITTRGGSTYYADSVKGRFTISRDNANNTVYLQMNSLKPEDTAVYYCAARARYPNWTYYYWGQGTQVTVSS	high polyreactivity
QVQLVESGGGLDQAGGSLRLSCAASGFTFRKNAMGWYRQAPGKERELVAVISYSGGSTYYADSVNGRFTISRDSANNTVYLQMNSQKPEDSAVYYCNAVGWTRYWRIGWSAYYYWGQGTQVTVSS	high polyreactivity
QVQLVESGGGLDQAGGSLRLSCAASGFTFRYYAMGWYRQAPRKERELVAAIRRGGTTNYADSVKGRFTISRDNAKNTVYLQMNSLKPEDTAVYYCANYRYGYDYWGQGTQVTVSS	high polyreactivity
QVQLVESGGGLDQAGGSLRLSCAASGGIFSVYAMGWYRQAPGKEREFVAAISKSGGRTYYADSVKGRFTISRDTAKKTVYLQMNCLKQVDTAVYYCNADVYPYYRKPWMDYWGQGSQVTVSS	low polyreactivity
QVQLVESGGGLDQAGGSLRLSCAASGIIFAANAMGWSRQAPGKERELVAAISKNGGITYYADSVQGRFTISRDNAKNTVDLQRNSLKPEDTAVYYCAARWRQTRSYYYWGQGTQVNVSS	high polyreactivity
QVQLVESGGGLDQAGGSLRLSCAASGIIFGVNVMGWYRQAPGKERELVATITWRGDSTYYADSVKGRFTISRDNAKNTVYLQMNSLKPEDTAVYYCARGARTGVREDDYWGQGTQVTLSS	low polyreactivity
QVQLVESGGGLDQAGGSLRLSCAASGIIFKYYAMGWYRQAPGKERELVAAINYSGGRTYYADSVKGRFTISRDNAKNTVYLQMNSLKPEDTAVYYCAKVPAYADRGKFDYWGQGTQVTVSS	high polyreactivity
QVQLVESGGGLDQAGGSLRLSCAASGITFFNYAMGWYRQAPGKEREFVAGIDSSGGSTSYADSVKGRFTISRDNAKNTVYLQMNSLKPEDTAVYYCAADRTGSHFDYWGQGTQVTVSS	low polyreactivity
QVQLVESGGGLDQAGGSLRLSCAASGITFYGYTMGLYRQAPGKERELVATITRGGSTYYADSVKGRFTISRDNAKNTVYLQMNSLKPEDTAVYYCAAESQYDYGVEYDYWVQGTQVTVSS	low polyreactivity
QVQLVESGGGLDQAGGSLRLSCAASGLIFRPYDMGWYSQAPGKERELVAAISNGDSTNYADSVKGRFTISRDNAKNTDYLEMNSLKPEDTAVYYCNAAIPSWLEYEYWGQGTQVTVSS	low polyreactivity
